Assay results published in article PMC3583661 (Molecular Biology of the Cell, 2013).

Molecular target: the molecule itself
Test: co-IP

B1: Slk19 (recombinant; Slk19-HA-His and Slk19-Myc-His) (natural protein, budding yeast, UniProt Q08581 1-821, looked up)
chain: MNEVPTTPVRLILGQAQQREQNSENCSQERNPRTFNSEPDSSFNSPGSSQFVIHPHEPLEKEKDEKQDLDRSIDYGRSSALNNKNNANPLENIDINKMFDDKKSDSGTNDDKGGASTSDKHVLALNYSPIRVEMNSSEKRSDKNVDVDENDKEGSHINKKLKLQLESVPDLKQSSTKDIINDKEEIMSSPMAIDMIETNISPNKFIINDGVERNDSFNINTDTLKLENDINEKQQEEDFIKSNSNNVVNIDNAYKEKEDEENDITNSHINRLTPLYETSARESNSNEEGRNDYDDDNQLDIRHDNFQIVAKRNEELTDQIYHLNQMLNSLISKNESLSFQYEKLNKNHQLLIDLTNEKLDKLNTERESDIAKVEKFKKRIKELNTEIKVLNSNQKILQEKFDASITEVNHIKGEHENTVNTLQQNEKILNDKNVELENMKAELKGNNDKLSEYETTLNDLNSRIVQLNDKIESTDIVLKSKENELDNLKLSLKETLSISKDFNDSDLIGQINELISTKNNLQQKMDDLNNLNDDNLKVVQDKLIKNEETLKLKEAEIDSLNSEMDELKKQITSKDDEFKMWQSKYETVEDEAKIRNAEVTELNGDIEDLKESKLHLEETITELENKVHKLENECELEKQKFEKTSLELESLQLKNSNIQAEHIKELENLHENLISLQNELKISSDRITTLTKENEVLMEQNNNNNNSVTLSNDQKDRDDEKIKSLGKQVQDWKEKYEAKEKDTNKRLKLLAEDLYIQYSSKHEQKVKLLKKGYENKYQNKFDQLNLENKTLSEEIEQLNKQLSSEREEKQELLKLLENEKK
binding result: binds
